The target in the data set is T1, PUF4 RNA-binding domain (Saccharomyces cerevisiae, UniProt P25339 537-888).
T1 sequence: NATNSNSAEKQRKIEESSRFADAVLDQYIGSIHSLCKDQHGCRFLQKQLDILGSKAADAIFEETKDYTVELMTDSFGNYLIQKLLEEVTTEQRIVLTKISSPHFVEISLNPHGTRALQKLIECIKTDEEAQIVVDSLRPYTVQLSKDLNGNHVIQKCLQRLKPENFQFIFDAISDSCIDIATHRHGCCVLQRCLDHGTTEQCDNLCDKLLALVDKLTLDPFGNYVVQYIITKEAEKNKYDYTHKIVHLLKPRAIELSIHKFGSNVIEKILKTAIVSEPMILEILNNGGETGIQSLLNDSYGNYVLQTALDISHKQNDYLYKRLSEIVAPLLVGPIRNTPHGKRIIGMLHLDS
Briefly: Mg; RNA-MaP; 20 mM Na-HEPES pH 7.4, 30 mM KOAc, 0.75 mM MgCl2, 0.1% Tween-20, 5% glycerol, 0.1 mg/mL BSA, 2 mM DTT; 25 C; 0.0125-409.6 nM protein. The settings on record: tags: N-His6-TEV cleaved; C-SNAP kept, Cy3B-labelled; label: tethered on chip by stalled RNA polymerase.

Substitutions are numbered along the chain they refer to. Numbers in names are those of the source.

B1: Ic_S4_P3E.1_K3.1_C3.1_H3.1_A3.1_[T5G]_[A6C]_F3.1_[T7A]_[A8T]_T3.1 (ssRNA)
RNA: UUUGACAACUGAUCGUUCUUUCUUGUAGCAUUUCUUUCUCGAUCAGUUGUCUUU
One may read the Kd as a measure of binding affinity in units of concentration. B1 came in with a Kd of 35.8 nM.

B2: Ic_S4_P3E.1_K3.1_C3.1_H3.1_A3.1_[T5G]_[A6T]_F3.1_[T7G]_[A8C]_T3.1 (ssRNA)
RNA: B1 RNA with C29U, A30G, U31C
B2: the Kd stood at 506 nM. Compared with the last molecule, the Kd is about 14-fold higher.

B3: Ic_S4_P3E.1_K3.1_C3.1_H3.1_A3.1_[T5A]_[A6T]_F3.1_[T7A]_[A8G]_T3.1 (ssRNA)
RNA: B1 RNA with G28A, C29U, U31G
Regarding B3, the Kd came to 1240 nM.

B4: Ic_S4_P3E.1_K3.1_C3.1_H3.1_A3.1_[T5C]_[A6C]_F3.1_[A8T]_T3.1 (ssRNA)
RNA: B1 RNA with G28C, A30U
Regarding B4, the affinity, expressed as Kd, was 13.4 nM.

B5: Ic_S4_P3E.1_K3.1_C3.1_H3.1_A3.1_[T5C]_[A6C]_F3.1_[T7A]_[A8T]_T3.1 (ssRNA)
RNA: B1 RNA with G28C
Molecule B5 returned a Kd of 5.15 nM.

B6: Ic_S4_P3E.1_K3.1_C3.1_H3.1_A3.1_[T5A]_[A6C]_F3.1_[T7G]_[A8T]_T3.1 (ssRNA)
RNA: B1 RNA with G28A, A30G
B6 displayed a Kd of 270 nM.

B7: Ic_S4_P3E.1_K3.1_C3.1_H3.1_A3.1_[T5C]_F3.1_[T7A]_T3.1 (ssRNA)
RNA: B1 RNA with G28C, C29A, U31A
Consider B7, for which the Kd came out at 41.6 nM.

B8: Ic_S4_P3E.1_K3.1_C3.1_H3.1_A3.1_[T5C]_F3.1_[T7C]_[A8T]_T3.1 (ssRNA)
RNA: B1 RNA with G28C, C29A, A30C
For the molecule B8, the Kd was 5.34 nM.

B9: Ic_S4_P3E.1_K3.1_C3.1_H3.1_A3.1_[T5G]_[A6C]_F3.1_[A8C]_T3.1 (ssRNA)
RNA: B1 RNA with A30U, U31C
In the case of B9, the Kd came to 192 nM.

B10: Ic_S4_P3E.1_K3.1_C3.1_H3.1_A3.1_[T5C]_[A6T]_F3.1_[T7C]_T3.1 (ssRNA)
RNA: B1 RNA with G28C, C29U, A30C, U31A
Molecule B10 displayed a Kd of 108 nM.

B11: Ic_S4_P3E.1_K3.1_C3.1_H3.1_A3.1_[T5A]_[A6C]_F3.1_[T7A]_[A8T]_T3.1 (ssRNA)
RNA: B1 RNA with G28A
In turn, B11 registered a Kd of 15.1 nM.

B12: Ic_S4_P3E.1_K3.1_C3.1_H3.1_A3.1_[T5A]_[A6T]_F3.1_[T7A]_[A8C]_T3.1 (ssRNA)
RNA: B1 RNA with G28A, C29U, U31C
In turn, B12 gave a Kd of 226 nM.

B13: Ic_S4_P3E.1_K3.1_C3.1_H3.1_A3.1_[T5C]_[A6T]_F3.1_[A8G]_T3.1 (ssRNA)
RNA: B1 RNA with G28C, C29U, A30U, U31G
Regarding B13, the Kd is 103 nM.

B14: Ic_S4_P3E.1_K3.1_C3.1_H3.1_A3.1_[T5G]_[A6T]_F3.1_[T7G]_[A8T]_T3.1 (ssRNA)
RNA: B1 RNA with C29U, A30G
In turn, B14 showed a Kd of 100 nM.

B15: Ic_S4_P3E.1_K3.1_C3.1_H3.1_A3.1_[T5A]_[A6C]_F3.1_[T7A]_[A8C]_T3.1 (ssRNA)
RNA: B1 RNA with G28A, U31C
In turn, B15 displayed a Kd of 144 nM.

B16: Ic_S4_P3E.1_K3.1_C3.1_H3.1_A3.1_[T5C]_[A6T]_F3.1_[T7G]_[A8G]_T3.1 (ssRNA)
RNA: B1 RNA with G28C, C29U, A30G, U31G
B16: the Kd is 1840 nM.

B17: Ic_S4_P3E.1_K3.1_C3.1_H3.1_A3.1_[T5C]_[A6T]_F3.1_[T7A]_T3.1 (ssRNA)
RNA: B1 RNA with G28C, C29U, U31A
Turning to B17, the dissociation constant (Kd) worked out at 46.5 nM.

B18: Ic_S4_P3E.1_K3.1_C3.1_H3.1_A3.1_[T5C]_[A6C]_F3.1_[T7C]_[A8T]_T3.1 (ssRNA)
RNA: B1 RNA with G28C, A30C
B18: the Kd amounted to 14.2 nM. This Kd lies about 3.3-fold lower than the previous one.

B19: Ic_S4_P3E.1_K3.1_C3.1_H3.1_A3.1_[T5C]_F3.1_[T7G]_[A8T]_T3.1 (ssRNA)
RNA: B1 RNA with G28C, C29A, A30G
Consider B19, for which binding was put at a Kd of 15.3 nM.

B20: Ic_S4_P3E.1_K3.1_C3.1_H3.1_A3.1_[T5A]_[A6C]_F3.1_[A8T]_T3.1 (ssRNA)
RNA: B1 RNA with G28A, A30U
As for B20, binding was put at a Kd of 21.6 nM.

B21: Ic_S4_P3E.1_K3.1_C3.1_H3.1_A3.1_[T5C]_[A6C]_F3.1_[T7C]_T3.1 (ssRNA)
RNA: B1 RNA with G28C, A30C, U31A
B21 returned a Kd of 487 nM.

B22: Ic_S4_P3E.1_K3.1_C3.1_H3.1_A3.1_[T5C]_F3.1_[T7C]_[A8C]_T3.1 (ssRNA)
RNA: B1 RNA with G28C, C29A, A30C, U31C
B22 yielded a Kd of 26.4 nM. Compared with the last molecule, the Kd is about 18-fold lower.

B23: Ic_S4_P3E.1_K3.1_C3.1_H3.1_A3.1_[T5G]_[A6T]_F3.1_[T7A]_[A8C]_T3.1 (ssRNA)
RNA: B1 RNA with C29U, U31C
Take B23: the Kd is 404 nM.

B24: Ic_S4_P3E.1_K3.1_C3.1_H3.1_A3.1_[T5A]_[A6C]_F3.1_[A8C]_T3.1 (ssRNA)
RNA: B1 RNA with G28A, A30U, U31C
In turn, B24 gave a Kd of 78.8 nM. Against the preceding molecule, the Kd is about 5.1-fold lower.

B25: Ic_S4_P3E.1_K3.1_C3.1_H3.1_A3.1_[T5C]_[A6G]_F3.1_[T7G]_[A8C]_T3.1 (ssRNA)
RNA: B1 RNA with G28C, C29G, A30G, U31C
Regarding B25, the Kd was found to be 1030 nM.

B26: Ic_S4_P3E.1_K3.1_C3.1_H3.1_A3.1_[T5A]_[A6T]_F3.1_[T7C]_[A8T]_T3.1 (ssRNA)
RNA: B1 RNA with G28A, C29U, A30C
With B26, binding was characterised by a dissociation constant (Kd) of 18.3 nM.

B27: Ic_S4_P3E.1_K3.1_C3.1_H3.1_A3.1_[T5C]_[A6T]_F3.1_[T7G]_[A8C]_T3.1 (ssRNA)
RNA: B1 RNA with G28C, C29U, A30G, U31C
B27: the Kd was 442 nM.

B28: Ic_S4_P3E.1_K3.1_C3.1_H3.1_A3.1_[T5C]_[A6G]_F3.1_[T7C]_[A8G]_T3.1 (ssRNA)
RNA: B1 RNA with G28C, C29G, A30C, U31G
B28 registered a Kd of 908 nM. Compared with the last molecule, the Kd is about 2.1-fold higher.

B29: Ic_S4_P3E.1_K3.1_C3.1_H3.1_A3.1_[T5C]_[A6T]_F3.1_[T7C]_[A8C]_T3.1 (ssRNA)
RNA: B1 RNA with G28C, C29U, A30C, U31C
For the molecule B29, binding was characterised by a dissociation constant (Kd) of 120 nM.

B30: Ic_S4_P3E.1_K3.1_C3.1_H3.1_A3.1_[T5C]_F3.1_[A8T]_T3.1 (ssRNA)
RNA: B1 RNA with G28C, C29A, A30U
B30 showed a Kd of 2.28 nM.

B31: Ic_S4_P3E.1_K3.1_C3.1_H3.1_A3.1_[T5C]_[A6C]_F3.1_[T7A]_[A8C]_T3.1 (ssRNA)
RNA: B1 RNA with G28C, U31C
Molecule B31 had a Kd of 79.7 nM.

B32: Ic_S4_P3E.1_K3.1_C3.1_H3.1_A3.1_[T5C]_[A6G]_F3.1_[T7C]_T3.1 (ssRNA)
RNA: B1 RNA with G28C, C29G, A30C, U31A
Turning to B32, the Kd was found to be 444 nM.

B33: Ic_S4_P3E.1_K3.1_C3.1_H3.1_A3.1_[T5G]_[A6T]_F3.1_[T7A]_[A8T]_T3.1 (ssRNA)
RNA: B1 RNA with C29U
As to B33, binding was put at a Kd of 52.9 nM.

B34: Ic_S4_P3E.1_K3.1_C3.1_H3.1_A3.1_[T5C]_[A6T]_F3.1_[T7C]_[A8T]_T3.1 (ssRNA)
RNA: B1 RNA with G28C, C29U, A30C
With B34, the Kd is 12.3 nM. Compared with the last molecule, the Kd is about 4.3-fold lower.

B35: Ic_S4_P3E.1_K3.1_C3.1_H3.1_A3.1_[T5C]_[A6T]_F3.1_[A8T]_T3.1 (ssRNA)
RNA: B1 RNA with G28C, C29U, A30U
In the case of B35, the affinity, expressed as Kd, was 10.1 nM.

B36: Ic_S4_P3E.1_K3.1_C3.1_H3.1_A3.1_[T5A]_[A6T]_F3.1_[T7A]_T3.1 (ssRNA)
RNA: B1 RNA with G28A, C29U, U31A
For B36, the Kd came to 126 nM.

B37: Ic_S4_P3E.1_K3.1_C3.1_H3.1_A3.1_[T5C]_[A6T]_F3.1_[T7A]_[A8C]_T3.1 (ssRNA)
RNA: B1 RNA with G28C, C29U, U31C
On to B37, for which the Kd stood at 89.8 nM.

For the molecule UCUCUUUGUGUAUUGUCUCUU (ssRNA) [Ib_S1_P4E.1_K4.1_C4.1_H4.1_[A4G]_A4.1_F4.1_[A9G]_T4.1], the Kd came to 18.3 nM.

For UCUCUUUGUCUAUUGUCUCUU (ssRNA) [Ib_S1_P4E.1_K4.1_C4.1_H4.1_[A4C]_A4.1_F4.1_[A9G]_T4.1], the affinity, expressed as Kd, was 569 nM.

Turning to UCUCUUUGCAUAUUUUCUCUU (ssRNA) [Ib_S1_P4E.1_K4.1_C4.1_H4.1_[T3C]_A4.1_F4.1_[A9T]_T4.1], the Kd is > 2300 nM.

UCUCUUUGCAUAUUGUCUCUU (ssRNA) [Ib_S1_P4E.1_K4.1_C4.1_H4.1_[T3C]_A4.1_F4.1_[A9G]_T4.1] gave a Kd of 1840 nM.

Consider UCUCUUUAUAUAUUAUCUCUU (ssRNA) [Ia_S1_P4E.1_K4.1_C4.1_H4.1_[G2A]_A4.1_F4.1_T4.1], for which binding was characterised by a dissociation constant (Kd) of 14.1 nM.
